Results as given in the supplement of paper PMC9112550, “Optimization of the antimicrobial peptide Bac7 by deep mutational scanning” (BMC Biology, 2022).

Each sequence was assayed on Escherichia coli TOP10 (assay: shrunken log2 fold change of peptide-encoding DNA abundance (4.5 h post-induction vs induction); higher = less antimicrobial activity (less host growth inhibition)). Details: time post-induction: 4.5 h; library: site-saturation at positions 5, 18, 19, 20.
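Note: peptides expressed intracellularly from a pBAD plasmid library in pooled LB shake-flask culture, induced with 0.3% L-arabinose, DNA abundance read by NGS, three biological replicates, DESeq2 with apeglm shrinkage.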

| Sequence | shrunken log2 fold change |
| --- | --- |
| RRIRARPPRLPRPRPRPWFDPRP | -0.178 |
| RRIRARPPRLPRPRPRPWFKPRP | -0.0366 |
| RRIRARPPRLPRPRPRPWGRPRP | 0.198 |
| RRIRARPPRLPRPRPRPWHCPRP | -0.16 |
| RRIRARPPRLPRPRPRPWHWPRP | 0.209 |
| RRIRARPPRLPRPRPRPWIEPRP | -0.105 |
| RRIRARPPRLPRPRPRPWIPPRP | -0.161 |
| RRIRARPPRLPRPRPRPWITPRP | -0.0939 |
| RRIRARPPRLPRPRPRPWKDPRP | -0.0732 |
| RRIRARPPRLPRPRPRPWKGPRP | 0.142 |
| RRIRARPPRLPRPRPRPWKKPRP | -0.0663 |
| RRIRARPPRLPRPRPRPWLEPRP | -0.0344 |
| RRIRARPPRLPRPRPRPWNEPRP | -0.19 |
| RRIRARPPRLPRPRPRPWPIPRP | 0.179 |
| RRIRARPPRLPRPRPRPWSLPRP | -0.181 |
| RRIRARPPRLPRPRPRPWSTPRP | 0.0839 |
| RRIRARPPRLPRPRPRPWTFPRP | -0.0754 |
| RRIRARPPRLPRPRPRPWYNPRP | -0.305 |
| RRIRARPPRLPRPRPRPWYWPRP | 0.0283 |
| RRIRARPPRLPRPRPRPWYYPRP | -0.628 |
| RRIRARPPRLPRPRPRPYARPRP | -0.118 |
| RRIRARPPRLPRPRPRPYAYPRP | 0.104 |
| RRIRARPPRLPRPRPRPYDNPRP | -0.0875 |
| RRIRARPPRLPRPRPRPYFSPRP | -0.624 |
| RRIRARPPRLPRPRPRPYHTPRP | -0.407 |

| Sequence | shrunken log2 fold change |
| --- | --- |
| RRIRARPPRLPRPRPRPYHWPRP | -0.0767 |
| RRIRARPPRLPRPRPRPYIFPRP | -0.277 |
| RRIRARPPRLPRPRPRPYIYPRP | -0.346 |
| RRIRARPPRLPRPRPRPYLWPRP | 0.134 |
| RRIRARPPRLPRPRPRPYMAPRP | -0.702 |
| RRIRARPPRLPRPRPRPYMHPRP | -0.361 |
| RRIRARPPRLPRPRPRPYMWPRP | -0.927 |
| RRIRARPPRLPRPRPRPYNKPRP | -0.731 |
| RRIRARPPRLPRPRPRPYNMPRP | -0.809 |
| RRIRARPPRLPRPRPRPYPPPRP | -0.129 |
| RRIRARPPRLPRPRPRPYPWPRP | -0.32 |
| RRIRARPPRLPRPRPRPYRIPRP | 0.11 |
| RRIRARPPRLPRPRPRPYSSPRP | -0.28 |
| RRIRARPPRLPRPRPRPYSYPRP | -0.292 |
| RRIRARPPRLPRPRPRPYTNPRP | -1.06 |
| RRIRARPPRLPRPRPRPYVAPRP | -0.35 |
| RRIRARPPRLPRPRPRPYVDPRP | -0.16 |
| RRIRARPPRLPRPRPRPYVEPRP | -0.162 |
| RRIRCRPPRLPRPRPRPACNPRP | -0.0286 |
| RRIRCRPPRLPRPRPRPADEPRP | 0.431 |
| RRIRCRPPRLPRPRPRPAFDPRP | 0.253 |
| RRIRCRPPRLPRPRPRPAFIPRP | 0.0295 |
| RRIRCRPPRLPRPRPRPAFVPRP | 0.179 |
| RRIRCRPPRLPRPRPRPAGGPRP | 0.489 |
| RRIRCRPPRLPRPRPRPAGMPRP | 0.104 |

| Sequence | shrunken log2 fold change |
| --- | --- |
| RRIRCRPPRLPRPRPRPAGYPRP | -0.342 |
| RRIRCRPPRLPRPRPRPAHCPRP | 1.77 |
| RRIRCRPPRLPRPRPRPAIAPRP | 0.165 |
| RRIRCRPPRLPRPRPRPAICPRP | 0.0424 |
| RRIRCRPPRLPRPRPRPAIEPRP | -0.384 |
| RRIRCRPPRLPRPRPRPAKHPRP | -0.23 |
| RRIRCRPPRLPRPRPRPAMWPRP | 0.295 |
| RRIRCRPPRLPRPRPRPAPFPRP | 0.0214 |
| RRIRCRPPRLPRPRPRPAPRPRP | 0.915 |
| RRIRCRPPRLPRPRPRPARAPRP | 0.471 |
| RRIRCRPPRLPRPRPRPARCPRP | 0.477 |
| RRIRCRPPRLPRPRPRPARMPRP | 0.264 |
| RRIRCRPPRLPRPRPRPARRPRP | 0.555 |
| RRIRCRPPRLPRPRPRPARWPRP | 0.56 |
| RRIRCRPPRLPRPRPRPCATPRP | 0.16 |
| RRIRCRPPRLPRPRPRPCAVPRP | -0.29 |
| RRIRCRPPRLPRPRPRPCCNPRP | -0.188 |
| RRIRCRPPRLPRPRPRPCDCPRP | -0.139 |
| RRIRCRPPRLPRPRPRPCDIPRP | -0.0278 |
| RRIRCRPPRLPRPRPRPCETPRP | 0.0192 |
| RRIRCRPPRLPRPRPRPCGNPRP | -0.278 |
| RRIRCRPPRLPRPRPRPCHQPRP | 0.0175 |
| RRIRCRPPRLPRPRPRPCIRPRP | -0.145 |
| RRIRCRPPRLPRPRPRPCIWPRP | -0.0143 |
| RRIRCRPPRLPRPRPRPCKIPRP | -0.543 |
